Source: patent US20260226126A1 (ANWITA BIOSCIENCES, published 2026)

T1: CD122 (human, UniProt P14784 27-239)
T1 construct: also called IL-2Rβ; hIL-2 receptor
T1 sequence: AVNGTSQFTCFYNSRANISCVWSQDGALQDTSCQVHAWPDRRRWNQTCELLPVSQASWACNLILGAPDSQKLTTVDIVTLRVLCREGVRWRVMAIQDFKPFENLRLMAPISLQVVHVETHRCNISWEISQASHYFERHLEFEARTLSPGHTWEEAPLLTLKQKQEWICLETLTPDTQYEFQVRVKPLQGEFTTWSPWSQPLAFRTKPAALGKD

T2: AVITAG CD122/CD132 heterodimer (human, UniProt P14784 27-239; P31785 23-262)
T2 construct: also called IL-2Rβ/γ
T2 sequence 1: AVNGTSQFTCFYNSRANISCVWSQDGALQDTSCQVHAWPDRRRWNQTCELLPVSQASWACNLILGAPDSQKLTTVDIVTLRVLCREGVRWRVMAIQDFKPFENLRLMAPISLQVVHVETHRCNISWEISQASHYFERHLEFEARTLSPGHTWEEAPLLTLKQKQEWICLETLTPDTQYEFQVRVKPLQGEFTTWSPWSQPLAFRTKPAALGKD
T2 sequence 2: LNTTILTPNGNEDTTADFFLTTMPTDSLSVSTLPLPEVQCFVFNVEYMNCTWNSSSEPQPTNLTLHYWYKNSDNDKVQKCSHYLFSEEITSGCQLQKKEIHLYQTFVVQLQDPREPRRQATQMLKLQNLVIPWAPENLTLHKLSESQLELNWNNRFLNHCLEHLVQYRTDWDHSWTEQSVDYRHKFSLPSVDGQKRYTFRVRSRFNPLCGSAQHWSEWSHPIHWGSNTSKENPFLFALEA

T3: His-tagged & Twin Strep-tagged human IL-2Rβ & IL-2Rγ heterodimer protein (human, UniProt P14784 27-239; P31785 23-262)
T3 construct: also called Human IL-2Rβγ; human IL-2Rβγ (His)
T3 sequence 1: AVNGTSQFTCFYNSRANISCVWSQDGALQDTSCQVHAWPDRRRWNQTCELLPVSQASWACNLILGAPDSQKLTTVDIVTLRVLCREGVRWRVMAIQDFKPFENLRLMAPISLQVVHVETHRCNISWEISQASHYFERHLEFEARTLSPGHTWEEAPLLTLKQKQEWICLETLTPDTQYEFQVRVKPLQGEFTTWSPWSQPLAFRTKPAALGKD
T3 sequence 2: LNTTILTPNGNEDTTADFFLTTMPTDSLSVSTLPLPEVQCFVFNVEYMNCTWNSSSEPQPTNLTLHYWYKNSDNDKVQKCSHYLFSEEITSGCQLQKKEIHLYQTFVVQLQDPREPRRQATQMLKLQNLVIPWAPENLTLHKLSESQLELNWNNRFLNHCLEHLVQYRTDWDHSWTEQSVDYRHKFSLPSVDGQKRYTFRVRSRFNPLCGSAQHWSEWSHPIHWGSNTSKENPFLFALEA

T4: His-tagged IL-2Rα (CD25) protein (human, UniProt P01589 22-240)
T4 construct: also called Human IL-2Rα
T4 sequence: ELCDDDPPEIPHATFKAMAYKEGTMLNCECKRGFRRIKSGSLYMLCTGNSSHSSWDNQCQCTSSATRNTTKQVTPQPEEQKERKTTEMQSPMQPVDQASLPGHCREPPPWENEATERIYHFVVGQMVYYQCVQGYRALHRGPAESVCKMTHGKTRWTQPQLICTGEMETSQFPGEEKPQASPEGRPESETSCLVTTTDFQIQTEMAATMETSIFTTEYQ


Key:
CD122 = target: T1, CD122; test: BLI (OCTET RED96); receptor loaded on biosensor, IL-2 mutein in solution at 10 to 2,000 nM
Description: (§1) CD122 and AVITAG CD122/CD132 heterodimer were purchased from ACROBIOSYSTEMS, Inc. The protein samples were diluted in the OCTET® kinetic buffer. […] The association and dissociation sensorgram was fitted by global or local fitting using the OCTET® Data Analysis HT software.

[1] = target: T2, AVITAG CD122/CD132 heterodimer; test: as above
Description: as §1

[2] = target: T3, His-tagged & Twin Strep-tagged human …; test: BLI (OCTET RED96); His-tagged receptor heterodimer captured on anti-penta-HIS (HIS1K) biosensor, serially diluted fusion protein A1 in solution
Text: (§2) Anti-PD-1/IL-2 fusion protein A1 was made by co-expression of SEQ ID NOs: 160 and 161 in CHO cells. OCTET® RED96 was used to study the interaction between anti-PD-1/IL-2 fusion protein A1 and human PD-1 or IL-2 receptors. For the binding study of the human PD-1, anti-human-Fc (AHC) biosensors were used to capture anti-PD-1/IL-2 fusion protein A1. The coated biosensors were associated with serially diluted His-tagged human PD-1 protein at predetermined concentrations. For the binding study of human IL-2 receptors, anti-penta-HIS (HIS1K) biosensors were used to capture human IL-2Rα or human IL-2Rβγ (His) proteins. The coated biosensors were associated with serially diluted anti-PD-1/IL-2 fusion protein A1 at predetermined concentrations.

His-tagged human PD-1 = target: T5, His-tagged human PD-1 (human, UniProt Q15116 25-167, limits assumed); test: BLI (OCTET RED96); fusion protein A1 captured on anti-human-Fc (AHC) biosensor, serially diluted His-tagged human PD-1 in solution
T5 construct: also called His-tagged human PD-1 protein
T5 sequence (Q15116 25-167 limits assumed): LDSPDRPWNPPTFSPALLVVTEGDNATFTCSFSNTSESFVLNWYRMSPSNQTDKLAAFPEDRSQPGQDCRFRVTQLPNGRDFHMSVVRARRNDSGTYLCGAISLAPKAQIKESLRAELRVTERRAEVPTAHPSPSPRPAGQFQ
Text: as §2

[3] = target: T4, His-tagged IL-2Rα (CD25) protein; test: BLI (OCTET RED96); His-tagged receptor captured on anti-penta-HIS (HIS1K) biosensor, serially diluted fusion protein A1 in solution
Text: as §2

Row | Binder | Kd (CD122) [nM] | Kd [1] [nM] | also measured
1 | IL-2-IL-15 Chimera 2 (T3A, C125S) (ligand, hIL-2 with N29-L40 replaced by an IL-15 hinge fragment-containing peptide; no fusion partner is stated) APASSSTKKTQLQLEHLLLDLQMILNGIQSMEIDATTFKFYMPKKATELKHLQCLEEELKPLEEVLNLAQSKNFHLRPRDLISNINVIVLELKGSETTFMCEYADETATIVEFLNRWITFSQSIISTLT | 104 | 11 | 
2 | IL-2-IL-15 Chimera 29 (I92A, C125S) (ligand, no fusion partner is stated) APTSSSTKKTQLQLEHLLLDLQMILNGIQSMEIDATTFKFYMPKKATELKHLQCLEEELKPLEEVLNLAQSKNFHLRPRDLISNINVAVLELKGSETTFMCEYADETATIVEFLNRWITFSQSIISTLT |  | 3.5 | 
3 | IL-2-IL-15 Chimera 42 (E15K, N88A, C125S) (ligand, no fusion partner is stated) APTSSSTKKTQLQLKHLLLDLQMILNGIQSMEIDATTFKFYMPKKATELKHLQCLEEELKPLEEVLNLAQSKNFHLRPRDLISAINVIVLELKGSETTFMCEYADETATIVEFLNRWITFSQSIISTLT |  | 53 | 
4 | IL-2-IL-15 Chimera 44 (T3A, L18C) (ligand, no fusion partner is stated) APASSSTKKTQLQLEHLCLDLQMILNGIQSMEIDATTFKFYMPKKATELKHLQCLEEELKPLEEVLNLAQSKNFHLRPRDLISNINVIVLELKGSETTFMCEYADETATIVEFLNRWITFCQSIISTLT |  | 12 | 
5 | IL-2-IL-15 Chimera 46 (T3A, C125S, Q126E) (ligand, no fusion partner is stated) APASSSTKKTQLQLEHLLLDLQMILNGIQSMEIDATTFKFYMPKKATELKHLQCLEEELKPLEEVLNLAQSKNFHLRPRDLISNINVIVLELKGSETTFMCEYADETATIVEFLNRWITFSESIISTLT |  | 219 | 
6 | IL-2-IL-15 Chimera 54 (T3A, C125S, Q126T) (ligand, no fusion partner is stated) APASSSTKKTQLQLEHLLLDLQMILNGIQSMEIDATTFKFYMPKKATELKHLQCLEEELKPLEEVLNLAQSKNFHLRPRDLISNINVIVLELKGSETTFMCEYADETATIVEFLNRWITFSTSIISTLT | 650 | 30 | 
7 | IL-2-IL-15 Chimera 56 (T3A, C125S, S130R) (ligand, no fusion partner is stated) APASSSTKKTQLQLEHLLLDLQMILNGIQSMEIDATTFKFYMPKKATELKHLQCLEEELKPLEEVLNLAQSKNFHLRPRDLISNINVIVLELKGSETTFMCEYADETATIVEFLNRWITFSQSIIRTLT | 808 | 12 | 
8 | IL-2-IL-15 Chimera 58 (T3A, L18C, Q126E) (ligand, no fusion partner is stated) APASSSTKKTQLQLEHLCLDLQMILNGIQSMEIDATTFKFYMPKKATELKHLQCLEEELKPLEEVLNLAQSKNFHLRPRDLISNINVIVLELKGSETTFMCEYADETATIVEFLNRWITFCESIISTLT | 188 | 229 | 
9 | IL-2-IL-15 Chimera 64 (T3A, L18C, Q126S) (ligand, no fusion partner is stated) APASSSTKKTQLQLEHLCLDLQMILNGIQSMEIDATTFKFYMPKKATELKHLQCLEEELKPLEEVLNLAQSKNFHLRPRDLISNINVIVLELKGSETTFMCEYADETATIVEFLNRWITFCSSIISTLT |  | 382 | 
10 | IL-2-IL-15 Chimera 68 (T3A, C125S, Q126T, S130R) (ligand, no fusion partner is stated) APASSSTKKTQLQLEHLLLDLQMILNGIQSMEIDATTFKFYMPKKATELKHLQCLEEELKPLEEVLNLAQSKNFHLRPRDLISNINVIVLELKGSETTFMCEYADETATIVEFLNRWITFSTSIIRTLT | 466 | 32 | 
11 | IL-2-IL-15 Chimera 69 (T3A, L18S, C125S, Q126E) (ligand, no fusion partner is stated) APASSSTKKTQLQLEHLSLDLQMILNGIQSMEIDATTFKFYMPKKATELKHLQCLEEELKPLEEVLNLAQSKNFHLRPRDLISNINVIVLELKGSETTFMCEYADETATIVEFLNRWITFSESIISTLT |  | 322 | 
12 | hIL-2 Mutein (T3A, F42A, Y45A, L72G, C125S) (ligand, no fusion partner is stated) APASSSTKKTQLQLEHLLLDLQMILNGINNYKNPKLTRMLTAKFAMPKKATELKHLQCLEEELKPLEEVLNGAQSKNFHLRPRDLISNINVIVLELKGSETTFMCEYADETATIVEFLNRWITFSQSIISTLT | 550 | 6.8 | 
13 | hIL-2 Mutein (T3A, R38E, F42A, K76E, C125S) (ligand, no fusion partner is stated) APASSSTKKTQLQLEHLLLDLQMILNGINNYKNPKLTEMLTAKFYMPKKATELKHLQCLEEELKPLEEVLNLAQSENFHLRPRDLISNINVIVLELKGSETTFMCEYADETATIVEFLNRWITFSQSIISTLT |  | 1 | 
14 | Anti-PD-1/IL-2 fusion protein A1 (Fc fusion, The two chains form a knobs-into-holes heterodimer) chain 1: QVQLLESGGGLVKPGGSLRLSCAASGRTYAMGWFRRAPGKESEFVAEIRWSSTFTDYADSVKGRFTISRDNAENSAYLQMNSLRAEDTAVYHCAAQTSQRGTLYDSYGQGTQVTVSSESKYGPPCPPCPAPEFLGGPSVFLFPPKPKDTLMISRTPEVTCVVVDVSQEDPEVQFNWYVDGVEVHNAKTKPREEQFNSTYRVVSVLTVLHQDWLNGKEYKCKVSNKGLPSSIEKTISKAKGQPREPQVCTLPPSQEEMTKNQVSLSCAVKGFYPSDIAVEWESNGQPENNYKTTPPVLDSDGSFFLVSRLTVDKSRWQEGNVFSCSVMHEALHNHYTQKSLSLSLGAGGGGSGGGGSGGGGSAPASSSTKKTQLQLEHLSLDLQMILNGIQSMEIDATTFKFYMPKKATELKHLQCLEEELKPLEEVLNLAQSKNFHLRPRDLISNINVIVLELKGSETTFMCEYADETATIVEFLNRWITFSESIISTLT chain 2: QVQLLESGGGLVKPGGSLRLSCAASGRTYAMGWFRRAPGKESEFVAEIRWSSTFTDYADSVKGRFTISRDNAENSAYLQMNSLRAEDTAVYHCAAQTSQRGTLYDSYGQGTQVTVSSESKYGPPCPPCPAPEFLGGPSVFLFPPKPKDTLMISRTPEVTCVVVDVSQEDPEVQFNWYVDGVEVHNAKTKPREEQFNSTYRVVSVLTVLHQDWLNGKEYKCKVSNKGLPSSIEKTISKAKGQPREPQVYTLPPCQEEMTKNQVSLWCLVKGFYPSDIAVEWESNGQPENNYKTTPPVLDSDGSFFLYSRLTVDKSRWQEGNVFSCSVMHEALHNHYTQKSLSLSLGK |  |  | Kd [2]: 12 nM; Kd (His-tagged human PD-1): 5 nM; binding result [3]: no binding
